Assays:
biotinylated human PD-L1 = target: T1, biotinylated human PD-L1 (human, UniProt Q9NZQ7 19-238, limits assumed, biotinylated (site not stated)); experiment: ELISA, biotinylated antigen captured on neutravidin plates, HRP secondary antibody
T1 construct: also called Human PDL1-biotin
Description: (§1) The polypeptide complex molecules were evaluated for their ability to bind human PDL1 or CD28 in a standard enzyme linked immunosorbent assay (ELISA) format. […] Polypeptide complex molecules diluted in buffer were then added to the antigen coated plates. Bound polypeptide complex was detected using a standard horse radish peroxidase conjugate secondary antibody.

biotinylated human CD28 = target: T2, biotinylated human CD28 (human, UniProt P10747 19-152, limits assumed, biotinylated (site not stated)); experiment: as above
T2 construct: also called Human CD28-Biotin
Description: as §1

B1: Ab-5 (bispecific antibody)
light: QSALTQPASVSGSPGQSITISCTGTSSDVGGYNYVSWYQQHPGKAPKLMIYDVSNRPSGVSNRFSGSKSGNTASLTISGLQAEDEADYYCSSYTSSSTRVFGTGTKVTVLGQPKANPTVTLFPPSSEELQANKATLVCLISDFYPGAVTVAWKADGSPVKAGVETTKPSKQSNNKYAASSYLSLTPEQWKSHRSYSCQVTHEGSTVEKTVAPTECS
heavy: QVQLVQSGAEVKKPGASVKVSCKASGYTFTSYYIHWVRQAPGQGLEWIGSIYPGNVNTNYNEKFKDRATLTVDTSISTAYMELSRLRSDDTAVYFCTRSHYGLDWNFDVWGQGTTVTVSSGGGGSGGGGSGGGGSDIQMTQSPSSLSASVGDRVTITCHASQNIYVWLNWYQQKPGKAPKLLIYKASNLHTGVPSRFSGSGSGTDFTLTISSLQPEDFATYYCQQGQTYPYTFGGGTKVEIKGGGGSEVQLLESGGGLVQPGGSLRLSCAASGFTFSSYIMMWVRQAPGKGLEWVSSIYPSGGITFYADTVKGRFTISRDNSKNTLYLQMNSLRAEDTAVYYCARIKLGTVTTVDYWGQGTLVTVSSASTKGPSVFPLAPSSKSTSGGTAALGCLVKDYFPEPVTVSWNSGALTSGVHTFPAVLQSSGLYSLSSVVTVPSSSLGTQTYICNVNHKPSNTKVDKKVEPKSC
notes: Anti-CD28 scFv fused to the heavy chain of anti-PD-L1 Fab 3; no Fc
- EC50 (biotinylated human PD-L1): 0.11 nM
- EC50 (biotinylated human CD28): 0.91 nM

B2: Ab-6 (bispecific antibody)
light: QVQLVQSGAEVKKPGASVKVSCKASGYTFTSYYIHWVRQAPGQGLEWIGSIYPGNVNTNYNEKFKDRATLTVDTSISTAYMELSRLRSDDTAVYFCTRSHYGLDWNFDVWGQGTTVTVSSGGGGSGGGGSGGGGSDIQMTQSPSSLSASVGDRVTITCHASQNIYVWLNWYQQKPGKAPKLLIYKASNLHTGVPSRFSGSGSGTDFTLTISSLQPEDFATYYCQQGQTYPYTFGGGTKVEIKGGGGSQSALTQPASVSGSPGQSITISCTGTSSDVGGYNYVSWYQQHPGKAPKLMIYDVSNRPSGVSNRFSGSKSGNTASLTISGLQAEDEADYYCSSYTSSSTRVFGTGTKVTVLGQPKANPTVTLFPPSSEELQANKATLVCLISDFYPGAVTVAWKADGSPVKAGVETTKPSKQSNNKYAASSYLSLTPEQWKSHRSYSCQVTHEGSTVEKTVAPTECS
heavy: EVQLLESGGGLVQPGGSLRLSCAASGFTFSSYIMMWVRQAPGKGLEWVSSIYPSGGITFYADTVKGRFTISRDNSKNTLYLQMNSLRAEDTAVYYCARIKLGTVTTVDYWGQGTLVTVSSASTKGPSVFPLAPSSKSTSGGTAALGCLVKDYFPEPVTVSWNSGALTSGVHTFPAVLQSSGLYSLSSVVTVPSSSLGTQTYICNVNHKPSNTKVDKKVEPKSC
notes: Anti-CD28 scFv fused to the light chain of anti-PD-L1 Fab 3; no Fc
- EC50 (biotinylated human PD-L1): 0.28 nM
- EC50 (biotinylated human CD28): 1.89 nM
